Earlier results on one substance are cited in PMC2855346.

This series has as its target CCR2 (Homo sapiens) (UniProt P41597).
Sequence of UniProt P41597 (P41597 whole entry): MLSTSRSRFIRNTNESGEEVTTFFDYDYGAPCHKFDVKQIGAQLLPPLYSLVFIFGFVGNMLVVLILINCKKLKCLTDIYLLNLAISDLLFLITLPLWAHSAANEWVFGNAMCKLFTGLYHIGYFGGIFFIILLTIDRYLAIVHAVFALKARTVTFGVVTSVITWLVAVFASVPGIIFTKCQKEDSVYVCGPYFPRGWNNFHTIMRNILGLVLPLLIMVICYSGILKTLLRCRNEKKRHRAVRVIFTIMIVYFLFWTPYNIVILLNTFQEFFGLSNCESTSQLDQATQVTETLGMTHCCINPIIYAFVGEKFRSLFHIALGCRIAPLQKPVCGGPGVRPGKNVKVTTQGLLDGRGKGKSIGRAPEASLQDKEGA

The term Kd denotes the constant that tells how readily two partners part at equilibrium. Take CCL2 (from UniProt P13500): the Kd is 2.5 nM.
